These results are taken from article doi:10.1101/2024.07.12.603331.

For orientation: stoichiometry N means a count of units in the complex or per binding partner.

The test deals with soluble extracellular domain of human DPP4 (residues S39-P766) (human), P27487. In words: SEC-MALS. The following applies: remark: other sources report otherwise.

B1: soluble extracellular domain of human DPP4 (residues S39-P766), P27487 39-766 (domain or fragment)
chain: SRKTYTLTDYLKNTYRLKLYSLRWISDHEYLYKQENNILVFNAEYGNSSVFLENSTFDEFGHSINDYSISPDGQFILLEYNYVKQWRHSYTASYDIYDLNKRQLITEERIPNNTQWVTWSPVGHKLAYVWNNDIYVKIEPNLPSYRITWTGKEDIIYNGITDWVYEEEVFSAYSALWWSPNGTFLAYAQFNDTEVPLIEYSFYSDESLQYPKTVRVPYPKAGAVNPTVKFFVVNTDSLSSVTNATSIQITAPASMLIGDHYLCDVTWATQERISLQWLRRIQNYSVMDICDYDESSGRWNCLVARQHIEMSTTGWVGRFRPSEPHFTLDGNSFYKIISNEEGYRHICYFQIDKKDCTFITKGTWEVIGIEALTSDYLYYISNEYKGMPGGRNLYKIQLSDYTKVTCLSCELNPERCQYYSVSFSKEAKYYQLRCSGPGLPLYTLHSSVNDKGLRVLEDNSALDKMLQNVQMPSKKLDFIILNETKFWYQMILPPHFDKSKKYPLLLDVYAGPCSQKADTVFRLNWATYLASTENIIVASFDGRGSGYQGDKIMHAINRRLGTFEVEDQIEAARQFSKMGFVDNKRIAIWGWSYGGYVTSMVLGSGSGVFKCGIAVAPVSRWEYYDSVYTERYMGLPTPEDNLDHYRNSTVMSRAENFKQVEYLLIHGTADDNVHFQQSAQISKALVDVGVDFQAMWYTDEDHGIASSTAHQHIYTHMSHFIKQCFSLP
In turn, B1 registered a stoichiometry N of 2.
